Laboratory results published in the supplement of paper PMC10724198.
± gives the standard deviation of the averaged measurements.

Tested on: Saccharomyces cerevisiae
Test: protein stability index of tFT-peptide fusion (C-terminal peptide) (PSI (0-1 scale)); higher = more stable (slower turnover)
Conditions: genetic background: wild type; temperature: 30 C
Experimental: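 Multiplexed protein stability (MPS) profiling in S. cerevisiae. Random 12-aa peptides (tFT-X12 library) are fused to the C-terminus of a sfGFP-mCherry tandem fluorescent timer, after mCherry and a GGGS linker. Cells are FACS-sorted into 8 mCherry/sfGFP bins and deep-sequenced. The protein stability index (PSI) is the read-weighted bin average, scaled from 0 (unstable) to 1 (stable). Only peptides with >10 reads are reported; cells were grown at 30 °C in SC-His with glucose.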
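Note: PSI is a weighted mean of sequencing reads over stability bins, variants kept only with over 10 reads, mCherry proximal and sfGFP distal, peptide attached via GGGS linker.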

Sequence | protein stability index
FECDYLLCGAGL | 0.744 ± 0.029
FELTSATWRGCF | 0.685 ± 0.094
FEVRLRCLGYSG | 0.718 ± 0.015
FFDPPPSLSALI | 0.7724 ± 0.0037
FFEVFDNYRSLV | 0.684 ± 0.051
FFFFPFLPFSWF | 0.507 ± 0.0084
FFITFGFSSGSR | 0.675 ± 0.068
FFPSPHVPPPPP | 0.617 ± 0.018
FFPSPPPVLSPP | 0.747 ± 0.021
FFSGYVVSTRHM | 0.702 ± 0.089
FFSMVFVFGFRA | 0.5 ± 0.015
FFSRFCYGFGRM | 0.723 ± 0.066
FFSSALILSLRL | 0.533 ± 0.023
FFVGAGGTEGLG | 0.705 ± 0.0088
FFVVGEEFCVSV | 0.649 ± 0.054
FGASSGSARVCG | 0.682 ± 0.083
FGEAFYVGCVHV | 0.698 ± 0.037
FGFLDRVLLFRV | 0.547 ± 0.013
FGFSSGRVRQRV | 0.754 ± 0.011
FGGSGAYRRVGE | 0.7 ± 0.072
FGGVGRGGLLWC | 0.7749 ± 0.0041
FGIGWNDRLVEC | 0.669 ± 0.057
FGSCVIFAAHWF | 0.6467 ± 0.0025
FGSVGSIRTPDG | 0.707 ± 0.0086
FGTKSLPSLLAM | 0.583 ± 0.034

Sequence | protein stability index
FGVRPVSVPLCG | 0.592 ± 0.047
FGVSFFSGVNGV | 0.681 ± 0.011
FGWKTGGRGTVM | 0.742 ± 0.04
FHFFSFLSSVGF | 0.6434 ± 0.0062
FHFPHPFLPFPS | 0.666 ± 0.12
FHPRLGVRLGIT | 0.632 ± 0.046
FHPRPPLLPSLP | 0.6435 ± 0.003
FHRESAEPSLWS | 0.697 ± 0.11
FHRHILCSDPRL | 0.709 ± 0.022
FHRSNFLPFFHL | 0.593 ± 0.092
FHYALRLLDFNN | 0.716 ± 0.12
FIFHFLMFPGPL | 0.56 ± 0.013
FIGLGPGVGGVW | 0.704 ± 0.028
FIIIKTKKMTMK | 0.7 ± 0.064
FIKTSDAVIGEK | 0.563 ± 0.017
FISVFYMLFPYR | 0.626 ± 0.013
FIVPLFPVFFSS | 0.621 ± 0.05
FLAWPRSDYPGF | 0.732 ± 0.022
FLCLVASLFRFA | 0.585 ± 0.043
FLCSRYRGYMPT | 0.632 ± 0.086
FLFCWGCCRLFW | 0.581 ± 0.1
FLFGILFTSRAV | 0.5311 ± 0.0015
FLFTLPPPPRCH | 0.709 ± 0.088
FLGLDLVFRFFV | 0.554 ± 0.066
FLGQPLSFSHVL | 0.692 ± 0.035

Sequence | protein stability index
FLIRSSQSFELE | 0.715 ± 0.035
FLKGTTSQQDYT | 0.7022 ± 0.0056
FLLFASPPPRPL | 0.715 ± 0.017
FLLPPPFLPLPL | 0.691 ± 0.028
FLLSARGVIVFW | 0.544 ± 0.018
FLLSLYSVPFVL | 0.63984 ± 0.00021
FLNRDGFETLFC | 0.686 ± 0.022
FLPPPPRRPFTR | 0.6282 ± 0.0057
FLPRGPLPPSPF | 0.595 ± 0.026
FLRCALRLRFGF | 0.671 ± 0.038
FLRGRTPLTAGD | 0.582 ± 0.022
FLSEPAKRILYL | 0.667 ± 0.018
FLSFFVLGVPGG | 0.707 ± 0.039
FLSHISVPRGKT | 0.773 ± 0.034
FLVREGIGKRGC | 0.641 ± 0.072
FLVRMIYYRRHP | 0.616 ± 0.028
FMSGIVDLQRPL | 0.691 ± 0.034
FMVFCFPFTGVL | 0.562 ± 0.022
FMVVKWSPCAWC | 0.539 ± 0.026
FNFSSGLTGSWL | 0.763 ± 0.024
FPASPQPPPPLP | 0.627 ± 0.024
FPDGLGSVPRSP | 0.68389 ± 0.0004
FPFTLSPTLFHS | 0.714 ± 0.08
FPLFRSLLLFAP | 0.5331 ± 0.00081
FPLLCAAPLLSS | 0.594 ± 0.0012

Sequence | protein stability index
FPLYKQKSGITY | 0.651 ± 0.0081
FPPARPDFPPST | 0.735 ± 0.025
FPPIHIHSPCYP | 0.765 ± 0.021
FPPPPLYFPFPL | 0.693 ± 0.017
FPQSDFFLLILS | 0.549 ± 0.013
FPRPACRSTHIL | 0.671 ± 0.065
FPRPPSVLACRP | 0.645 ± 0.088
FPRVTGTKPPPA | 0.7201 ± 0.0023
FPSPPLPSSSTS | 0.708 ± 0.051
FQAERTGVTRAR | 0.666 ± 0.0078
FQAVSPRFLVLP | 0.64 ± 0.046
FQGSDCLYFGLL | 0.741 ± 0.043
FQHFGAPPTWHE | 0.742 ± 0.093
FQVCAPLPISRS | 0.717 ± 0.029
FRAPVLCPSYYS | 0.7064 ± 0.0049
FRDPPSILTSDT | 0.621 ± 0.017
FRGAGAEGSGWG | 0.634 ± 0.0066
FRLILGCPFACL | 0.576 ± 0.034
FRLKRFSGTGYG | 0.698 ± 0.035
FRLPAIRRGHDS | 0.69 ± 0.069
FRRILGTIKLGR | 0.69 ± 0.023
FRTVRSMVGRRP | 0.721 ± 0.077
FRWGGPSGEVRE | 0.643 ± 0.1
FSACSGSHVEVW | 0.695 ± 0.037
FSFFVESFPASF | 0.668 ± 0.036

Sequence | protein stability index
FSFIPIRRYPVM | 0.733 ± 0.15
FSGFRFFLLWPW | 0.678 ± 0.085
FSHLRASFADAA | 0.687 ± 0.045
FSIFFFSFFSCF | 0.563 ± 0.039
FSILYLLPPGPL | 0.663 ± 0.092
FSKTLCGCQITC | 0.658 ± 0.037
FSLCFSSFSLFP | 0.676 ± 0.016
FSLPFLFCRPLS | 0.6279 ± 0.0042
FSLPSRAPLPRF | 0.735 ± 0.13
FSLSLACPPPHS | 0.679 ± 0.19
FSLSRWFDEIAL | 0.6438 ± 0.00075
FSLWPVRFVVDR | 0.679 ± 0.041
FSNLVSAHFGLL | 0.666 ± 0.042
FSPTPSRLSCDR | 0.728 ± 0.027
FSPVSSFTLTLS | 0.701 ± 0.11
FSRFWVSGGVVC | 0.599 ± 0.0082
FSSPSFRSSLLL | 0.679 ± 0.015
FSSTSAPPRSAP | 0.621 ± 0.0078
FTARAGRLQSVF | 0.627 ± 0.0097
FTCSAIIHVCGL | 0.571 ± 0.035
FTISALSSTPRP | 0.669 ± 0.042
FTLYLASVHFTR | 0.56 ± 0.044
FTVRSPSCISAE | 0.631 ± 0.017
FVALWVGCCWLG | 0.542 ± 0.011
FVAPPLCMPLSR | 0.704 ± 0.04

Sequence | protein stability index
FVCRRDIMSGIF | 0.6565 ± 0.0052
FVDWGLFAFGCL | 0.796 ± 0.062
FVFGVCGGGGIG | 0.671 ± 0.11
FVGAYGRLCCMS | 0.69 ± 0.031
FVGGNEGSYWAS | 0.751 ± 0.035
FVGRWSSRSRGH | 0.768 ± 0.022
FVILTPFYLTFH | 0.51 ± 0.033
FVIWGCGVRSWC | 0.618 ± 0.033
FVKRFSNGGVKT | 0.775 ± 0.027
FVLATGVLLQQG | 0.623 ± 0.024
FVLWFTSSGCSN | 0.7598 ± 0.0039
FVPMDFILKFSR | 0.699 ± 0.033
FVPPPVVPPFPL | 0.716 ± 0.017
FVQEQGAKNNRH | 0.746 ± 0.015
FVRAVLRLSSVF | 0.645 ± 0.052
FVRCLFSSGCFF | 0.728 ± 0.013
FVRGGWAVMLGG | 0.58 ± 0.049
FVSSSVFFVFSF | 0.627 ± 0.058
FVSWNLPLAFAF | 0.499 ± 0.017
FVVVVVGGGWGG | 0.516 ± 0.0068
FVWRVGGVRRGV | 0.758 ± 0.09
